System: Escherichia coli TOP10
Experiment: shrunken log2 fold change of peptide-encoding DNA abundance (4.5 h post-induction vs induction); higher = less antimicrobial activity (less host growth inhibition)
Conditions: time post-induction: 4.5 h; library: site-saturation at positions 5, 18, 19, 20
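Further: peptides expressed intracellularly from a pBAD plasmid library in pooled LB shake-flask culture, induced with 0.3% L-arabinose, DNA abundance read by NGS, three biological replicates, DESeq2 with apeglm shrinkage.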

Row | Sequence | shrunken log2 fold change
1 | RRIRKRPPRLPRPRPRPPTHPRP | 0.42
2 | RRIRDRPPRLPRPRPRPWDMPRP | -0.133
3 | RRIRFRPPRLPRPRPRPGLMPRP | -0.125
4 | RRIRYRPPRLPRPRPRPSQMPRP | -0.706
5 | RRIRNRPPRLPRPRPRPSKVPRP | 0.0123
6 | RRIRFRPPRLPRPRPRPAVAPRP | 0.196
7 | RRIRARPPRLPRPRPRPDQPPRP | 0.0452
8 | RRIRSRPPRLPRPRPRPYYNPRP | -0.906
9 | RRIRQRPPRLPRPRPRPQCLPRP | -0.122
10 | RRIRNRPPRLPRPRPRPILTPRP | -0.135
11 | RRIRQRPPRLPRPRPRPYVFPRP | -0.648
12 | RRIRWRPPRLPRPRPRPIEMPRP | 0.467
13 | RRIRMRPPRLPRPRPRPMKPPRP | -0.00107
14 | RRIRCRPPRLPRPRPRPQMHPRP | -0.27
15 | RRIRMRPPRLPRPRPRPMLVPRP | 0.2
16 | RRIRWRPPRLPRPRPRPKQAPRP | 0.413
17 | RRIRHRPPRLPRPRPRPRYEPRP | -0.0765
18 | RRIRRRPPRLPRPRPRPDILPRP | 0.0906
19 | RRIRKRPPRLPRPRPRPCCNPRP | 0.0185
20 | RRIRMRPPRLPRPRPRPTGFPRP | 1.12
21 | RRIRQRPPRLPRPRPRPMKYPRP | -0.498
22 | RRIRIRPPRLPRPRPRPAWMPRP | 0.0797
23 | RRIRRRPPRLPRPRPRPFTHPRP | -0.174
24 | RRIRFRPPRLPRPRPRPWMIPRP | -0.00776
25 | RRIRLRPPRLPRPRPRPHVSPRP | 0.00444

Row | Sequence | shrunken log2 fold change
26 | RRIRWRPPRLPRPRPRPETQPRP | 0.0616
27 | RRIRERPPRLPRPRPRPKSMPRP | -0.307
28 | RRIRLRPPRLPRPRPRPIFGPRP | 0.0171
29 | RRIRVRPPRLPRPRPRPQIDPRP | -0.321
30 | RRIRTRPPRLPRPRPRPKQWPRP | 0.158
31 | RRIRIRPPRLPRPRPRPPVQPRP | -0.0716
32 | RRIRARPPRLPRPRPRPNDCPRP | 0.0748
33 | RRIRIRPPRLPRPRPRPEFYPRP | -0.333
34 | RRIRVRPPRLPRPRPRPICEPRP | 0.058
35 | RRIRRRPPRLPRPRPRPSNQPRP | 0.00316
36 | RRIRHRPPRLPRPRPRPRWSPRP | 0.00212
37 | RRIRTRPPRLPRPRPRPVNTPRP | -0.103
38 | RRIRWRPPRLPRPRPRPVAVPRP | 0.465
39 | RRIRTRPPRLPRPRPRPSPWPRP | -0.114
40 | RRIRYRPPRLPRPRPRPNCPPRP | -0.272
41 | RRIRHRPPRLPRPRPRPDYQPRP | -0.0951
42 | RRIRVRPPRLPRPRPRPHSFPRP | -0.155
43 | RRIRHRPPRLPRPRPRPHNAPRP | -0.809
44 | RRIRMRPPRLPRPRPRPGYGPRP | 0.148
45 | RRIRGRPPRLPRPRPRPDEYPRP | 0.168
46 | RRIRLRPPRLPRPRPRPFVDPRP | 0.00121
47 | RRIRERPPRLPRPRPRPHCDPRP | 0.023
48 | RRIRSRPPRLPRPRPRPQFNPRP | -0.498
49 | RRIRKRPPRLPRPRPRPRLGPRP | 0.587
50 | RRIRFRPPRLPRPRPRPFLKPRP | -0.145
